Measurements: article PMC5325305, “Structural and biochemical studies on Vibrio cholerae Hsp31 reveals a novel dimeric form and Glutathione-independent Glyoxalase activity” (PLoS ONE, 2017)

Key:
[1] = tested on: Cc1cc(=O)oc2cc(NC(=O)[C@H](C)N)ccc12; assay: purified protein; settings: pH 8.0, 37°C, 20 mM Tris, 1 mM dithiothreitol, 3% dimethyl sulfoxide
CC(=O)C=O = assay: purified protein; settings: glutathione-independent, 100 mM sodium phosphate pH 7.5, 1 mM EDTA, 1 mM DTT (printed DDT), 37°C, text lists Km and Vmax values in swapped order, assigned by unit

For VcHsp31 (Vibrio cholerae), the Km [1] was 112.5 µM, the kcat [1] was 0.00128 s⁻¹ and the Km (CC(=O)C=O) was 250.8 µM. The kcat (CC(=O)C=O) was 0.6628 s⁻¹.
